Experiments:
Format in all cases: biochemical
[1] = ω-transaminase enzyme activity assay, reverse direction (7-aminoheptanoate to pimelate semialdehyde), L-alanine formation by RP-HPLC; details: cell free extract; 10 mM 7-aminoheptanoate, 10 mM pyruvate, pH 7.5, 25° C., 4 h; FIG. 13
Protocol: (§1) A nucleotide sequence encoding an N-terminal His-tag was added to the nucleic acid sequences from Chromobacterium violaceum, Pseudomonas syringae, Rhodobacter sphaeroides, and Vibrio fluvialis encoding the ω-transaminases of SEQ ID NOs: 7, 9, 10, and 12, respectively (see FIGS. 6E-6F) such that N-terminal HIS tagged ω-transaminases could be produced. Each of the resulting modified genes was cloned into a pET21a expression vector under control of the T7 promoter and each expression vector was transformed into a BL21[DE3] E. coli host. The resulting recombinant E. coli strains were cultivated at 37° C. in a 250 mL shake flask culture containing 50 mL LB media and antibiotic selection pressure, with shaking at 230 rpm. Each culture was induced overnight at 16° C. using 1 mM IPTG.
(§2) The pellet from each induced shake flask culture was harvested via centrifugation. Each pellet was resuspended and lysed via sonication. The cell debris was separated from the supernatant via centrifugation and the cell free extract was used immediately in enzyme activity assays.
Enzyme activity assays in the reverse direction (i.e., 7-aminoheptanoate to pimelate semialdehyde) were performed in a buffer composed of a final concentration of 50 mM HEPES buffer (pH=7.5), 10 mM 7-aminoheptanoate, 10 mM pyruvate, and 100 μM pyridoxyl 5′ phosphate. Each enzyme activity assay reaction was initiated by adding cell free extract of the ω-transaminase gene product or the empty vector control to the assay buffer containing the 7-aminoheptanoate and incubated at 25° C. for 4 h, with shaking at 250 rpm. The formation of L-alanine from pyruvate was quantified via RP-HPLC.

[2] = ω-transaminase enzyme activity assay (7-aminoheptanol to 7-oxoheptanol), L-alanine formation by RP-HPLC; details: for acceptance of 7-aminoheptanol as substrate (conversion of pyruvate to L-alanine), confirmed against the empty vector control: cell free extract, 10 mM 7-aminoheptanol, 10 mM pyruvate, pH 7.5, 25° C., 4 h, FIG. 17; for acceptance of 7-oxoheptanol as substrate forming 7-aminoheptanol: concluded from the reversibility of the ω-transaminase activity (Example 1)
Protocol: A nucleotide sequence encoding an N-terminal His-tag was added to the Chromobacterium violaceum, Pseudomonas syringae, and Rhodobacter sphaeroides nucleic acids encoding the ω-transaminases of SEQ ID NOs: 7, 9 and 10, respectively (see FIGS. 6E-6F), such that N-terminal HIS tagged ω-transaminases could be produced. The modified genes were cloned into a pET21a expression vector under the T7 promoter. Each expression vector was transformed into a BL21[DE3] E. coli host. Each resulting recombinant E. coli strain was cultivated at 37° C. in a 250 mL shake flask culture containing 50 mL LB media and antibiotic selection pressure, with shaking at 230 rpm. Each culture was induced overnight at 16° C. using 1 mM IPTG.
as §2
Enzyme activity assays in the reverse direction (i.e., 7-aminoheptanol to 7-oxoheptanol) were performed in a buffer composed of a final concentration of 50 mM HEPES buffer (pH=7.5), 10 mM 7-aminoheptanol, 10 mM pyruvate, and 100 μM pyridoxyl 5′ phosphate. Each enzyme activity assay reaction was initiated by adding cell free extract of the ω-transaminase gene product or the empty vector control to the assay buffer containing the 7-aminoheptanol and then incubated at 25° C. for 4 h, with shaking at 250 rpm. The formation of L-alanine was quantified via RP-HPLC.

[3] = ω-transaminase enzyme activity assay, forward direction (pimelate semialdehyde to 7-aminoheptanoate), pyruvate formation by RP-HPLC; details: for acceptance of pimelate semialdehyde as substrate (conversion of L-alanine to pyruvate), confirmed against the empty vector control: cell free extract, 10 mM pimelate semialdehyde, 10 mM L-alanine, pH 7.5, 25° C., 4 h, FIG. 14; for reversibility of the ω-transaminase activity: pimelate semialdehyde accepted, 7-aminoheptanoate synthesized: conclusion from forward and reverse direction assays of Example 1
Protocol: as §1, §2
Enzyme activity in the forward direction (i.e., pimelate semialdehyde to 7-aminoheptanoate) was confirmed for the transaminases of SEQ ID NO: 9, SEQ ID NO: 10, and SEQ ID NO: 12. Enzyme activity assays were performed in a buffer composed of a final concentration of 50 mM HEPES buffer (pH=7.5), 10 mM pimelate semialdehyde, 10 mM L-alanine, and 100 μM pyridoxyl 5′ phosphate. Each enzyme activity assay reaction was initiated by adding a cell free extract of the ω-transaminase gene product or the empty vector control to the assay buffer containing the pimelate semialdehyde and incubated at 25° C. for 4 h, with shaking at 250 rpm. The formation of pyruvate was quantified via RP-HPLC.

Molecule	acceptance of 7-aminoheptanoate as substrate (conversion of pyruvate to L-alanine), confirmed against the empty vector control [1]	acceptance of 7-aminoheptanol as substrate (conversion of pyruvate to L-alanine), confirmed against the empty vector control [2]	acceptance of 7-oxoheptanol as substrate forming 7-aminoheptanol [2]	acceptance of pimelate semialdehyde as substrate (conversion of L-alanine to pyruvate), confirmed against the empty vector control [3]	reversibility of the ω-transaminase activity: pimelate semialdehyde accepted, 7-aminoheptanoate synthesized [3]
SEQ ID NO: 10: Rhodobacter sphaeroides ω-transaminase, N-terminal HIS tagged	accepted 7-aminoheptanote as substrate	accepted 7-aminoheptanol as substrate	accept 7-oxoheptanol as substrate and form 7-aminoheptanol	accepted pimelate semialdehyde as substrate	accepted pimelate semialdehyde as substrate and synthesized 7-aminoheptanoate as a reaction product
SEQ ID NO: 7: Chromobacterium violaceum ω-transaminase, N-terminal HIS tagged (protein, listed as Chromobacterium violaceum, N-terminal His tag, Chromobacterium violaceum ω-transaminase, N-terminal HIS tagged) MQKQRTTSQWRELDAAHHLHPFTDTASLNQAGARVMTRGEGVYLWDSEGNKIIDGMAGLWCVNVGYGRKDFAEAARRQMEELPFYNTFFKTTHPAVVELSSLLAEVTPAGFDRVFYTNSGSESVDTMIRMVRRYWDVQGKPEKKTLIGRWNGYHGSTIGGASLGGMKYMHEQGDLPIPGMAHIEQPWWYKHGKDMTPDEFGVVAARWLEEKILEIGADKVAAFVGEPIQGAGGVIVPPATYWPEIERICRKYDVLLVADEVICGFGRTGEWFGHQHFGFQPDLFTAAKGLSSGYLPIGAVFVGKRVAEGLIAGGDFNHGFTYSGHPVCAAVAHANVAALRDEGIVQRVKDDIGPYMQKRWRETFSRFEHVDDVRGVGMVQAFTLVKNKAKRELFPDFGEIGTLCRDIFFRNNLIMRACGDHIVSAPPLVMTRAEVDEMLAVAERCLEEFEQTLKARGLA	accepted 7-aminoheptanote as substrate	accepted 7-aminoheptanol as substrate	accept 7-oxoheptanol as substrate and form 7-aminoheptanol	–	accepted pimelate semialdehyde as substrate and synthesized 7-aminoheptanoate as a reaction product
SEQ ID NO: 12: Vibrio fluvialis ω-transaminase, N-terminal HIS tagged (protein, listed as Vibrio fluvialis, N-terminal His tag, Vibrio fluvialis ω-transaminase, N-terminal HIS tagged) MNKPQSWEARAETYSLYGFTDMPSLHQRGTVVVTHGEGPYIVDVNGRRYLDANSGLWNMVAGFDHKGLIDAAKAQYERFPGYHAFFGRMSDQTVMLSEKLVEVSPFDSGRVFYTNSGSEANDTMVKMLWFLHAAEGKPQKRKILTRWNAYHGVTAVSASMTGKPYNSVFGLPLPGFVHLTCPHYWRYGEEGETEEQFVARLARELEETIQREGADTIAGFFAEPVMGAGGVIPPAKGYFQAILPILRKYDIPVISDEVICGFGRTGNTWGCVTYDFTPDAIISSKNLTAGFFPMGAVILGPELSKRLETAIEAIEEFPHGFTASGHPVGCAIALKAIDVVMNEGLAENVRRLAPRFEERLKHIAERPNIGEYRGIGFMWALEAVKDKASKTPFDGNLSVSERIANTCTDLGLICRPLGQSVVLCPPFILTEAQMDEMFDKLEKALDKVFAEVA	accepted 7-aminoheptanote as substrate	–	–	accepted pimelate semialdehyde as substrate	accepted pimelate semialdehyde as substrate and synthesized 7-aminoheptanoate as a reaction product
SEQ ID NO: 9: Pseudomonas syringae ω-transaminase, N-terminal HIS tagged (protein, listed as Pseudomonas syringae, N-terminal His tag, Pseudomonas syringae ω-transaminase, N-terminal HIS tagged) MSANNPQTLEWQALSSEHHLAPFSDYKQLKEKGPRIITRAEGVYLWDSEGNKILDGMSGLWCVAIGYGREELADAASKQMRELPYYNLFFQTAHPPVLELAKAISDIAPEGMNHVFFTGSGSEGNDTMLRMVRHYWALKGQPNKKTIISRVNGYHGSTVAGASLGGMTYMHEQGDLPIPGVVHIPQPYWFGEGGDMTPDEFGIWAAEQLEKKILELGVENVGAFIAEPIQGAGGVIVPPDSYWPKIKEILSRYDILFAADEVICGFGRTSEWFGSDFYGLRPDMMTIAKGLTSGYVPMGGLIVRDEIVAVLNEGGDFNHGFTYSGHPVAAAVALENIRILREEKIVERVRSETAPYLQKRLRELSDHPLVGEVRGVGLLGAIELVKDKTTRERYTDKGAGMICRTFCFDNGLIMRAVGDTMIIAPPLVISFAQIDELVEKARTCLDLTLAVLQG	accepted 7-aminoheptanote as substrate	accepted 7-aminoheptanol as substrate	accept 7-oxoheptanol as substrate and form 7-aminoheptanol	accepted pimelate semialdehyde as substrate	accepted pimelate semialdehyde as substrate and synthesized 7-aminoheptanoate as a reaction product

Reference: US10920254B2, “Methods and materials for producing 5 and 7-carbon monomers” (INVISTA North America S.á.r.l., priority 2015, dated 2021)
